Measurements taken from the supplement of paper PMC7125110.
± gives the standard error. Fewer inactive variants are shown than the library holds.

B1: glmS ribozyme (parent)
chain: AUAAAAGCGCCAGAACUACAGAAAUGUAGUUGACGAGGAGGAGGUUUAUCGAAUUUUCGGCGGAUGCCUCCAAA

Variants of: B1
Experiment: self-cleavage kobs at 2500 uM GlcN6P; higher = faster cleavage; RNA array
Details: with glucosamine-6-phosphate
Procedure, shortened: (§1)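 Using a hybridised Cy3 probe at 37 °C, barcoded ribozyme variants transcribed in situ by E. coli RNA polymerase on sequenced MiSeq chips were monitored across tiles imaged over ~14 h. The flow contained glucosamine-6-phosphate from 40 μM to 10 mM in HEPES/KCl/Mg(OAc)2 buffer. Signals were normalised to baseline and to non-cleaving reference variants before per-tile medians were fit to one- or two-exponential decays to yield kobs. Weighted Michaelis–Menten fits across concentrations gave kcat and KM.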

Row | Variant | self-cleavage kobs at 2500 uM GlcN6P [s⁻¹]
1 | AUAAAAGCGCCAGAACUACAGAAAUGUAGUUGCCGAGGAAGAGGUUUCUCCAAUUUUCGCCGGAUGCCUCCAAA [A33C G40A A48C G51C G60C] | < 1e-05
2 | AUAAAAGCGCCAGAACUACAGAAAUGUAGUUUACGAGGAGGAGGUUUUUCGAAUUUUCGGCGGAUGUCUCCAAA [G32U A48U C67U] | < 1e-05
3 | AUAAAAGCGCCAGAACUACAGAAAUGUAGUUGCCGAUGAGGAGGUUUAUCGAAUUUACUGCGGAUGCCUCCAAA [A33C G37U U57A G59U] | < 1e-05
4 | AUAAAAGCGCCAGAACUACAGAAAUGUAGUUGGCGAGGAGGAGGUUUAUCGGAUUUUCGGCAGAUGCCUCCAAA [A33G A52G G62A] | < 1e-05
5 | AUAAAAGCGCCAGAACUACAGAAAUGUAGUUGGCGAGGAGGAGGUUUAUCGAUUUUUCGUCGGAUGCCUCGAAA [A33G A53U G60U C71G] | < 1e-05
6 | AUAAAAGCGCCAGAACUACAGAAAUGUAGUUCACGCGGUGGAGGUUUAUCGAAUUUUCGGCGGAUGCCGCCAAA [G32C A36C A39U U69G] | < 1e-05
7 | AUAAAAGCGCCAGAACUACAGAAAUGUAGUUGGAGAGGAGGAGGUAUAUCGAAUUUUCGGAGGAUGCCUCCAAA [A33G C34A U46A C61A] | < 1e-05
8 | AUAAAAGCGCCAGAACUACAGAAAUGUAGUUGCCGAGGAAGAGGUUUAUCGUAUUUUCGGGGGAUGCCUCCAAA [A33C G40A A52U C61G] | < 1e-05
9 | AUAAAAGCGCCAGAACUACAGAAAUGUAGUUGAAGAGGAGGAGGUUUUUCGAAUUUUCGGCGGAUGCAUCGAAA [C34A A48U C68A C71G] | < 1e-05
10 | AUAAAAGCGCCAGAACUACAGAAAUGUAGUUGCCGAGGAGGAGGUUUAUCGAAUUUUCGGAUGAUGCCUCCAAA [A33C C61A G62U] | < 1e-05
11 | AUAAAAGCGCCAGAACUACAGAAAUGUAGUUUACGAGGUGGAGGUUUAUAGAAUUUUCGGCGGAUGCCUCCAAA [G32U A39U C50A] | < 1e-05
12 | AUAAAAGCGCCAGAACUACAGAAAUGUAGUUUACGAGUAGGAGGUUUAUCGAAUUUUCGGCGGAUGUCUCCAAA [G32U G38U C67U] | < 1e-05
13 | AUAAAAGCGCCAGAACUACAGAAAUGUAGUUGUCGAGGAGGAGGUUUAUCUAAUUUUCGGCGGAUGUCUCCAAA [A33U G51U C67U] | < 1e-05
14 | AUAAAAGCGCCAGAACUACAGAAAUGUAGUUCACGAGGAGGGGGUUUAUCGAAUUUUCUGCGGAUGCCUCCAAA [G32C A42G G59U] | < 1e-05
15 | AUAAAAGCGCCAGAACUACAGAAAUGUAGUUGGCGAGGAGGAGUUUUAUCGAAUUUUCGGCGUAUGCCUCCAAA [A33G G44U G63U] | < 1e-05
16 | AUAAAAGCGCCAGAACUACAGAAAUGUAGUUUACGAGGAGAAGGUUUAUCGAAUUUUUGGCGGAUGCCUCCAAA [G32U G41A C58U] | 9.05e-05 ± 2.6e-05
17 | AUAAAAGCGCCAGAACUACAGAAAUGUAGUUCACGAUGAGGAGGUUUAUCGAAUUUUCGGCGGAUGCCUGCAAA [G32C G37U C70G] | 9.68e-05 ± 4.2e-05

Row | Variant | self-cleavage kobs at 2500 uM GlcN6P [s⁻¹]
18 | AUAAAAGCGCCAGAACUACAGAAAUGUAGUUGUCGAGGAGGAGGUUUAUCGAAUUUUCGGCGGAUGACACCAAA [A33U C67A U69A] | < 1e-05
19 | AUAAAAGCGCCAGAACUACAGAAAUGUAGUUGCCAAGGAGGAGGUUUAUCGAAUUAUCGGCGGAUGCCUCCAAA [A33C G35A U56A] | < 1e-05
20 | AUAAAAGCGCCAGAACUACAGAAAUGUAGUUGUCGAGGAGGAGGUUUAUCGAGUUUUCGGCCGACGCCUCCAAA [A33U A53G G62C U65C] | < 1e-05
21 | AUAAAAGCGCCAGAACUACAGAAAUGUAGUUCCCGAGGAGGAGGUUUAGCGAAUUUUCGGCGGAUGCCUCCAAA [G32C A33C U49G] | < 1e-05
22 | AUAAAAGCGCCAGAACUACAGAAAUGUAGUUGCAGAGGAGGAGGUUUAUCGAAUUUUCGGCUGAUGCCUCUAAA [A33C C34A G62U C71U] | < 1e-05
23 | AUAAAAGCGCCAGAACUACAGAAAUGUAGUUGUCGAAGAGGAGGUUUAUCGAAUAUUCGGUGGAUGCCUCCAAA [A33U G37A U55A C61U] | < 1e-05
24 | AUAAAAGCGCCAGAACUACAGAAAUGUAGUUUACGAGGAGGAGGUUUAUCGAAUCUUCGGCGGAUGCCUCCAAA [G32U U55C] | 0.000307 ± 7.3e-05
25 | AUAAAAGCGCCAGAACUACAGAAAUGUAGUUUACGAGGAGGAGGUUUAUCGAAUUUACGGAGGAUGCCUCCAAA [G32U U57A C61A] | < 1e-05
26 | AUAAAAGCGCCAGAACUACAGAAAUGUAGUUCACGAGGAGGAGGUUUAUCGAACUUUCGGCGUAUGCCUCCAAA [G32C U54C G63U] | < 1e-05
27 | AUAAAAGCGCCAGAACUACAGAAAUGUAGUUGCCGAGGGGGAGGUUUAUCGAAUUUUCGGCGGAUGCCUACAAA [A33C A39G C70A] | < 1e-05
28 | AUAAAAGCGCCAGAACUACAGAAAUGUAGUUCACGAGGAGGAGGUUUAUCGAAUUUUCGGCGGAGGCGUCCAAA [G32C U65G C68G] | < 1e-05
29 | AUAAAAGCGCCAGAACUACAGAAAUGUAGUUUACGAGGAGGAGGUUUAUCGAAUUUUCGGCGGGUACCUCCAAA [G32U A64G G66A] | 0.000236 ± 5.9e-05
30 | AUAAAAGCGCCAGAACUACAGAAAUGUAGUUCACCAGGAGGAGGUUUAUCGAAUUCUCGGCGGAUGCCUCCAAA [G32C G35C U56C] | < 1e-05
31 | AUAAAAGCGCCAGAACUACAGAAAUGUAGUUGUCGAGGAGGAGGUUUAUCCACUUUUCGGCGGAUGCCUCCAAA [A33U G51C A53C] | < 1e-05
32 | AUAAAAGCGCCAGAACUACAGAAAUGUAGUUCACGAGGAGGAGGUUUAUCGACUUUUCGGCGGACGCCUCCAAA [G32C A53C U65C] | < 1e-05
33 | AUAAAAGCGCCAGAACUACAGAAAUGUAGUUUACGAGGAGGAGCUUGAUCGAAUUUUCGGCGGAUGCCUCCAAA [G32U G44C U47G] | < 1e-05
34 | AUAAAAGCGCCAGAACUACAGAAAUGUAGUUUACGACGAGGAUGUUUAUCGAAUUUUCGGCGGAUGCCUCCAAA [G32U G37C G43U] | < 1e-05

Variants of: B1
Experiment: self-cleavage kobs at 10000 uM GlcN6P; higher = faster cleavage; RNA array
Details: with glucosamine-6-phosphate
Procedure, shortened: as §1

Row | Variant | self-cleavage kobs at 10000 uM GlcN6P [s⁻¹]
35 | AUAAAAGCGCCAGAACUACAGAAAUGUAGUUCACGCGGUGGAGGUUUAUCGAAUUUUCGGCGGAUGCCGCCAAA [G32C A36C A39U U69G] | < 1e-05
36 | AUAAAAGCGCCAGAACUACAGAAAUGUAGUUGAAGAGGAGGAGGUUUUUCGAAUUUUCGGCGGAUGCAUCGAAA [C34A A48U C68A C71G] | < 1e-05
37 | AUAAAAGCGCCAGAACUACAGAAAUGUAGUUUACGAGGAGGAGGUUUAUCGAAUCUUCGGCGGAUGCCUCCAAA [G32U U55C] | 0.000584 ± 6.9e-05
